Article PMC5766566, “Characterization of human small heat shock protein HSPB1 α-crystallin domain localized mutants associated with hereditary motor neuron diseases” (Scientific Reports, 2018)
Substitutions are numbered along the chain they refer to. Names may count otherwise.

Assays:
Conditions in all cases: both partners purified
human HSPB1 R127W mutant [1] = molecular target: T1, human HSPB1 R127W mutant (human, UniProt P04792 1-205, R127W); assay: cross-linking; disulfide cross-linking of mixtures: 50 μM of each protein in 50 mM sodium phosphate pH 7.5, 100 mM NaCl, 5 mM DTT overnight at 37 °C, then dialysis without DTT at 20 °C for 24 h; non-reducing SDS-PAGE
T1 construct: HSPB1 (HSP27), human, with the autosomal dominant Charcot-Marie-Tooth mutation R127W; Disease mutation found in patients; Probably the whole protein; SUMO carrier probably removed (subtractive IMAC); source: recombinant (pET23b or pETHSUK construct), expressed as described earlier

[2] = molecular target: T2, human small heat shock protein HSPB1, wild type (human, UniProt P04792 1-205); assay: as above
T2 construct: HSPB1 (HSP27), human; six Trp); Two constructs and two purification routes were used and are said to give indistinguishable proteins; Polydisperse oligomer, on average 23 subunits by SEC-SAXS; also called HSP27; WT HSPB1; source: recombinant (pET23b or pETHSUK construct), expressed as described earlier; purified (ammonium sulfate fractionation, anion-exchange, SEC; or subtractive IMAC, …

human HSPB1 S135F mutant [3] = molecular target: T3, human HSPB1 S135F mutant (human, UniProt P04792 1-205, S135F); assay: as above
T3 construct: HSPB1 (HSP27), human, with the autosomal dominant Charcot-Marie-Tooth mutation S135F; Disease mutation found in patients; Probably the whole protein; SUMO carrier probably removed (subtractive IMAC); The abstract once prints R135F for this mutant; source: recombinant (pET23b or pETHSUK construct), expressed as described earlier; purified (ammonium sulfate fractionation, anion-exchange, SEC; or …)

human HSPB1 R127W mutant [4] = molecular target: T1, human HSPB1 R127W mutant; assay: SEC; equimolar mixture, 30 μM per monomer of each sHSP in buffer S, preincubated at 4 °C for 1 hr, then Superdex 200 HR
human HSPB1 S135F mutant [5] = molecular target: T3, human HSPB1 S135F mutant; assay: as above
[6] = molecular target: T2, human small heat shock protein HSPB1, …; assay: SEC; equimolar mixture, 30 μM per monomer of each sHSP in buffer S, preincubated at 42 °C for 1 hr, then Superdex 200 HR

Measured: binding result

T2 sequence (P04792 whole entry): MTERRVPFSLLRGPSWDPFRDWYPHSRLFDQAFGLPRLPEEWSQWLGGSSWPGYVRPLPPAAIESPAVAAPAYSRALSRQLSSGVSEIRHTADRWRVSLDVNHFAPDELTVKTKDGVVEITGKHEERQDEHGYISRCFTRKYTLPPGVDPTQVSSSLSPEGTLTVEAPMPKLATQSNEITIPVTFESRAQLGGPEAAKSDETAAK
T1 sequence (P04792 whole entry R127W): as the sequence (P04792 whole entry) above, with R127W counted along it
T3 sequence (P04792 whole entry S135F): as the sequence (P04792 whole entry) above, with S135F counted along it

B1: human HSPB6 C46S/E116C double mutant (natural protein, UniProt O14558 1-160, looked up)
chain: MEIPVPVQPSWLRRASAPLPGLSAPGRLFDQRFGEGLLEAELAALSPTTLAPYYLRAPSVALPVAQVPTDPGHFSVLLDVKHFSPEEIAVKVVGEHVEVHARHEERPDEHGFVARCFHRRYRLPPGVDPAAVTSALSPEGVLSIQAAPASAQAPPPAAAK
notes: HSPB6 (HSP20), human, double mutant C46S/E116C made for disulfide cross-linking
binds: human HSPB1 R127W mutant [1] | [2] | human HSPB1 S135F mutant [3]

B2: human HSPB6, wild type (natural protein, UniProt O14558 1-160, looked up)
chain: B1 chain with S46C, C116E
notes: HSPB6 (HSP20), human small heat shock protein; also called HSP20; WT HSPB6
binds: human HSPB1 R127W mutant [4] | human HSPB1 S135F mutant [5] | [6]
